Key:
[1] = target: T1, FGFR4-Fc (human, UniProt P22455 22-369); experiment: ELISA on FGFR family Fc fusion proteins
T1 construct: Bought from R&D Systems; not shown: human Fc
T1 sequence (looked up): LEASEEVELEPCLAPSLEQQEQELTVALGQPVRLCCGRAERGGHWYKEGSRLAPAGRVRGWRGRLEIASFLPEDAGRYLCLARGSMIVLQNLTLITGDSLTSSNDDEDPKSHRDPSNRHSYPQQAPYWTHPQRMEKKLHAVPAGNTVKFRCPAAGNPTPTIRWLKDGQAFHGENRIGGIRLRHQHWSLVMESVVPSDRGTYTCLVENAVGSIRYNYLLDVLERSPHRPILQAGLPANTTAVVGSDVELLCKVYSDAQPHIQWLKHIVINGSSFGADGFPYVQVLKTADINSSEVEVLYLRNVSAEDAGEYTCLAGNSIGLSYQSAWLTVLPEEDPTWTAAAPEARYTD

[2] = target: T2, FGFR3b-Fc (human, UniProt P22607-2 23-377); experiment: ELISA on FGFR family Fc fusion proteins
T2 construct: Bought from R&D Systems; the IIIb form is an isoform of it; not shown: human Fc
T2 sequence (looked up): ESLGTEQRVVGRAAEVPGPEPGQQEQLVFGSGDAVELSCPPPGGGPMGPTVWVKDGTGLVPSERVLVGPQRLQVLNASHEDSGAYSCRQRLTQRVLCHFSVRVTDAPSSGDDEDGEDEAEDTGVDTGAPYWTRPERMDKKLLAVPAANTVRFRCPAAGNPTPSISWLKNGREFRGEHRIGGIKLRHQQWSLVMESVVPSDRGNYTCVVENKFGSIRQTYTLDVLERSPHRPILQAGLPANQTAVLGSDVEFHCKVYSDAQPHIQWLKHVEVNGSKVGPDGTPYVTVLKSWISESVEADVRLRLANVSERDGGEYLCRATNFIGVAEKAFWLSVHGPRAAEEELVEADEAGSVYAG

[3] = target: T3, recombinant human FGFR1b-Fc (human, UniProt P11362-19 22-376); experiment: SPR (Biacore T200), hFGFR1b-Fc amine-coupled on CM5 chip, antibody as analyte
T3 construct: Bought from R&D Systems; also called hFGFR1b-Fc; not shown: human Fc
T3 sequence (looked up): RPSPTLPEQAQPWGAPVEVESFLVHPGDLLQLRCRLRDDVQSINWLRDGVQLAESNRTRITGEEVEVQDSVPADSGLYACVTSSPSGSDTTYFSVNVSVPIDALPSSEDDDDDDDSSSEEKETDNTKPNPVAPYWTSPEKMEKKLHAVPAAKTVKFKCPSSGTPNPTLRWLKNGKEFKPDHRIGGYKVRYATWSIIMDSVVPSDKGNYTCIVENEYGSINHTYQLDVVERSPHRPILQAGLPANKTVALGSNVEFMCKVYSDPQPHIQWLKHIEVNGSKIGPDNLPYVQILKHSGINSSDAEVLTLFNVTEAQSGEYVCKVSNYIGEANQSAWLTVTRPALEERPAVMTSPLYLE
Procedure: (§1) The binding of antibodies to human FGFR2b or human FGFR1b antigen was determined by surface plasmon resonance (Biacore). Briefly, CM5 sensor chip (GE Healthcare Life Sciences) was firstly activated by a 4 min injection of 1:1 freshly mixture of 50 mM N-hydroxysuccinamide (NHS): 200 mM […]. Then hFGFR2b-Fc or hFGFR1b-Fc was immobilized to activated CM5 sensor chip using Amine Coupling Kit (GE Healthcare Life Sciences) and 1M ethanolamine as the blocking reagent. About 20-30 response units (RU, 1 RU represents the binding of 1 pg of protein per square mm) of antigen protein were captured.
(§2) The association constant, dissociation constant were calculated with Biacore T200 evaluation software (version 1.0). […] In addition, Ab 21c is distinguished from the antibody FPA144 in terms of FGFR1b binding.

[4] = target: T4, recombinant rat/mouse FGFR2b-Fc (rat); experiment: ELISA, plate coated with rat/mouse FGFR2b-Fc, anti-human IgG HRP
T4 construct: also called rat FGFR2b fused with murine Fc
Procedure: (§3) The cross-species binding of Ab 21c to recombinant cyno, rat/mouse, and human FGFR2b-Fc fusion proteins was conducted with ELISA. In brief, 96-well ELISA plate were coated with about 100 μl/well 0.1 μg/ml recombinant human FGFR2b-Fc, recombinant rat/mouse FGFR2b-Fc, or recombinant cyno FGFR2b-Fc protein in PBS overnight. Then the plate was blocked with 2% BSA in PBS with 0.05% Tween20 and incubation with antibody samples for 60 min at room temperature, and then washed twice in 1×TBST (Cell Signaling Technology, #9997) and followed by incubation with anti-human lgG HRP (Horseradish peroxidase) conjugate for 60 min at a room temperature. HRP activity was detected with tetra-methylbenzidine substrate (Cell Signaling Technology, #7004) and the reaction was stopped with stop solution (Cell Signaling Technology, #7002). The plate was read at 450 nm. […] Ab 21c has the highest binding affinity to rat/mouse FGFR2b, followed by human FGFR2b, and then cyno FGFR2b.

[5] = target: T3, recombinant human FGFR1b-Fc; experiment: SPR (Biacore), hFGFR1b-Fc immobilized on CM5 chip, antibody injected at 0-200 nM
Procedure: as §1, §2

[6] = target: T5, cyno FGFR2b-Fc (Cynomolgus monkey); experiment: ELISA, plate coated with cyno FGFR2b-Fc, anti-human IgG HRP
T5 construct: also called recombinant cyno FGFR2b-Fc; cynomolgus FGFR2b
Procedure: as §3

[7] = target: T2, FGFR3b-Fc; experiment: ELISA, plate coated with HuFGFR3b
[8] = target: T1, FGFR4-Fc; experiment: ELISA, plate coated with HuFGFR4

B1: Ab hu21-21 (antibody, V domains shown)
VH: EVQLVQSGAEVKKPGASVKVSCKASGYTFTNYWMHWVRQAPGQGLEWMGAIYPENGDINYNQKFKGRVTLTRDTSISTAYMELSRLRSDDTAVYYCTSRGDYWGQGTTVTVSS
VL: AIQLTQSPSSLSASVGDRVTITCSASSGLSYMSWYQQKPGKAPKLLIYDTSNLASGVPSRFSGSGSGTDFTLTISSLQPEDFATYYCQQWSSYPYTFGQGTKLEIK
notes: Humanized antibody based on Ab 21
**Q.** Which results are given for B1?
**A.** binding result [1]: no binding; binding result [2]: no binding

B2: Ab hu21-26 (antibody, human IgG1, V domains shown)
VH: EVQLVQSGAEVKKPGASVKVSCKASGYTFTNYWMHWVRQAPGQGLEWMGAIYPENRDINYNQKFKGRVTLTRDTSISTAYMELSRLRSDDTAVYYCTSRGDYWGQGTTVTVSS
VL: AIQLTQSPSSLSASVGDRVTITCSASSGLSYMSWYQQKPGKAPKLLIYDTSNLASGVPSRFSGSGSGTDFTLTISSLQPEDFATYYCQQWSSYPYTFGQGTKLEIK
notes: Humanized antibody with human IgG1; The VH equals that of hu21-21 except for G56R; also called afhu21-26 (afucosylated version)
**Q.** Does B2 bind [1]?
**A.** no binding

**Q.** Does B2 bind [2]?
**A.** no binding

B3: Ab 21c (antibody, V domains shown)
VH: EVQLHQSGTVLARPGASVKMSCKTSGYTFTNYWMHWIKQRPGQGLEWIGAIYPENGDINYNQKFKGKAKLTAVTSASTAYMDLSSLTNEDSAVYYCTSRGDYWGQGTTLTVSS
VL: QIVLTQSPAIMSASPGEKVTMTCSASSGLSYMSWYQQKPGSSPRLLIYDTSNLASGVPVRFSGSGSGTSYSLTISRMEAEDAATYYCQQWSSYPYTFGGGTKLEIK
notes: Chimeric antibody: mouse VH and VL fused to human heavy and light chain constant regions; also called chimeric Ab 21c
**Q.** Which results are given for B3?
**A.** Kd [3]: 3.69 nM; EC50 (read off the curve) [4]: ~0.2 nM; koff [5]: 0.000235 s⁻¹; kon [5]: 63800 M⁻¹ s⁻¹; EC50 (read off the curve) [6]: ~0.6 nM

B4: Ab 21 (antibody, V domains shown)
VH: EVQLHQSGTVLARPGASVKMSCKTSGYTFTNYWMHWIKQRPGQGLEWIGAIYPENGDINYNQKFKGKAKLTAVTSASTAYMDLSSLTNEDSAVYYCTSRGDYWGQGTTLTVSS
VL: QIVLTQSPAIMSASPGEKVTMTCSASSGLSYMSWYQQKPGSSPRLLIYDTSNLASGVPVRFSGSGSGTSYSLTISRMEAEDAATYYCQQWSSYPYTFGGGTKLEIK
notes: Mouse monoclonal antibody from a hybridoma; also called mouse Ab 21
**Q.** Does B4 bind [7]?
**A.** no binding (tested: about 10^-7.3 M (about 5e-8 M))

**Q.** Does B4 bind [8]?
**A.** no binding (tested: about 10^-7.3 M (about 5e-8 M))
